Reference: patent US20180312608A1 (NEW YORK UNIVERSITY, published 2018)

What was measured:
Experiment in all cases: Biacore (SPR), tau peptide
[1] = biological target: T1, Tau379-408 [P-Ser396/404] (phosphoserine at Ser396 and Ser404 (Tau numbering, SEQ ID NO:1))
T1 construct: 30 amino acid synthetic peptide; also called Tau 379-408 (PSer396/PSer404)

Tau379-408 = biological target: T2, Tau379-408
T2 construct: 30 amino acid synthetic peptide, not phosphorylated; also called Tau 379-408 (Ser396/Ser404)

[2] = biological target: T3, Tau386-408 [P-Ser396/404] (phosphoserine at positions 11 and 19 (Ser396 and Ser404 of Tau))
T3 construct: 23 amino acid peptide; also called Tau 386-408 (PSer396/PSer404)

Tau386-408 [P-Ser404] = Tau386-408 [P-Ser404] (phosphoserine at Ser404 of Tau (position 19 of SEQ ID NO:7))
Tau386-408 [P-Ser404] (phosphoserine at Ser404 of Tau (position 19 of SEQ ID NO:7)), sequence (peptide, as listed by the source): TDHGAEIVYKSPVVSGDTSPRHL

T2 sequence (peptide, as listed by the source): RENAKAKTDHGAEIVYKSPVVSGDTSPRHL

- Kd [1]: 271 nM
- Kd (Tau379-408): 212 nM
- Kd [2]: 469 nM
- Kd (Tau386-408 [P-Ser404]): 278 nM
B1: Antibody 4E6G7 (antibody, V domains shown)
VH: VQLQQSGAELVQPGASVKLSCTASGFNIKDTSMHWVRQRPEQGLEWIGRIAPANGNTKYDPKFQGKATITTDTSSNTAYLQLSSLTSEDTAVYYCSGSGNYDWGQGTTLTVS
VL: DIQMNQSPSSLSASLGDTITISCHASQNINVWLSWYQQKPGNIPKLLIFEASTLYTGVPSRFSGSGSGTGFTLTISSLQPEDIATYYCQQGQSYPWTFGGGTKLEIKR
notes: constant regions are not
